Measurements reported in US20230416347A1.

Experiments:
Test in all cases: EuLISA
[1] = target: KEN hATTR extract (human) (UniProt P02766)
[2] = target: Per125 wtATTR extract (human) (UniProt P02766)
SHI ALλ liver extract = target: SHI ALλ liver extract
TAL ALκ liver extract = target: TAL ALκ liver extract
rVλ6Wil fibrils = target: rVλ6Wil fibrils

Substance | LogEC50 [1] | Max [1] | LogEC50 [2] | Max [2] | LogEC50 (SHI ALλ liver extract) | Max (SHI ALλ liver extract) | LogEC50 (TAL ALκ liver extract) | Max (TAL ALκ liver extract) | EC50 (rVλ6Wil fibrils) [nM] | LogEC50 (rVλ6Wil fibrils) | Max (rVλ6Wil fibrils)
chimeric antibody c11-1F4 | -1.36 -log(M) | 19700 |  |  |  |  |  |  |  |  | 
hIgG1 (antibody) | 9.06 -log(M) | -0.8 | 7.92 -log(M) | 8.38 | 7.88 -log(M) | 2.5 | 3 -log(M) | 2220 | 1280 | 5.89 -log(M) | 39.3
m11-1F4 (antibody) | 2.39 -log(M) | 294000 |  |  |  |  |  |  |  |  | 
